Data: article PMC8409457 (2021)
Bridges are numbered along the chain shown (N, C = ends). Where no end group is shown, it is not given here.

Legend:
Bcl-2 [1] = biological target: T1, Bcl-2 (UniProt P10415 1-239); assay: FP
Bcl-2 [2] = biological target: T1, Bcl-2; assay: SPR
MDM2 = MDM2 (UniProt Q00987 1-491); assay: FP; reduced
Sequence of MDM2 (Q00987 whole entry): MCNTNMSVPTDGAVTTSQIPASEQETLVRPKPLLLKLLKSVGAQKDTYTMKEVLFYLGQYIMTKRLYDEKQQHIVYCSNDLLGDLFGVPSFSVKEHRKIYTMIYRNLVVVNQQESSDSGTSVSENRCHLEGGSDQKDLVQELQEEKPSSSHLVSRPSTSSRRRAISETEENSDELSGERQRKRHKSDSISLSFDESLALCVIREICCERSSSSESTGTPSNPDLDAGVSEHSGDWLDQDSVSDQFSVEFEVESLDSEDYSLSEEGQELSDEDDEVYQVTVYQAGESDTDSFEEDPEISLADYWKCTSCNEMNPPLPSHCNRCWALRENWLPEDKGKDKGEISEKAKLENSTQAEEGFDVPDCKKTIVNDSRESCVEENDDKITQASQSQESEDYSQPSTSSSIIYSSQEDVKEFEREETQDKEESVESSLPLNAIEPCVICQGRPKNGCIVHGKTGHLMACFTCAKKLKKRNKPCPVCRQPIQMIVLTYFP

T1 sequence (P10415 whole entry): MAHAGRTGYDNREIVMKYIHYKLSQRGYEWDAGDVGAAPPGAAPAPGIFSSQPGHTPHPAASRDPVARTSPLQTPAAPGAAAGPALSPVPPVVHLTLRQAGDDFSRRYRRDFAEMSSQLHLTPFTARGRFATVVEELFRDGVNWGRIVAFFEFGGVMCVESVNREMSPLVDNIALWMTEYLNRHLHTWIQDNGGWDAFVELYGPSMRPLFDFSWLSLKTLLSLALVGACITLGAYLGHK

Binder	Ki (Bcl-2 [1]) [nM]	koff (Bcl-2 [2]) [s⁻¹]	Ki (MDM2) [nM]
GCMILLDTDIWCPCSHPYACPENICC (disulfide 12-26 (inferred); disulfide 14-20, 2-25) [oxidized peptide 16]	770	0.0498	–
GCEKATESESPCPCIFPELCPWIVCC (cysteines reduced (no disulfide bonds)) [reduced linear peptide 15]	–	–	1120
